Laboratory results: US20240018502A1
Residue numbers refer to the chain shown, from its start. Names may count otherwise.

B1: MTSP-1 Q38H/I41S/D60bT/ins97aV/F97D/T98P/F99L/C122S/I136V/Q192G/D217S (enzyme)
chain: VVGGTDADEGEWPWQVSLHALGHGHSCGASLISPNWLVSAAHCYIDTRGFRYSDPTQWTAFLGLHDQSQRSAPGVQERRLKRIISHPFFNDDVPLDYDIALLELEKPAEYSSMVRPISLPDASHVFPAGKAVWVTGWGHTQYGGTGALILQKGEIRVINQTTCENLLPQQITPRMMCVGFLSGGVDSCGGDSGGPLSSVEADGRIFQAGVVSWGSGCAQRNKPGVYTRLPLFRDWIKENTGV
B2: MTSP-1 Q38H/I41S/D60bS/F93L/D96Y/ins97aV/F97D/T98P/F99L/C122S/I136F/Q192G/D217V (enzyme)
chain: B1 chain with T47S, F88L, D91Y, V132F, S215V
B3: MTSP-1 Q38H/I41T/D60bH/ins97aV/F97D/T98P/F99L/C122S/I136F/L153P/Q192G/D217Y (enzyme)
chain: B1 chain with S26T, T47H, V132F, L148P, S215Y
B4: MTSP-1 Q38H/I41S/D60bT/F93L/ins97aV/F97D/T98P/F99L/S115N/C122S/Q192V/F208L/D217Q (enzyme)
chain: B1 chain with F88L, S111N, V132I, G189V, F206L, S215Q
B5: MTSP-1 Q38K/I41T/D60bY/ins97aV/F97D/T98P/F99L/C122S/I136T/Q192G/F208V/D217R (enzyme)
chain: B1 chain with H23K, S26T, T47Y, V132T, F206V, S215R
B6: MTSP-1 Q38H/I41S/D60bS/ins97aV/F97D/T98P/F99L/C122S/I136V/Q192G/D217V (enzyme)
chain: B1 chain with T47S, S215V
B7: MTSP-1 Q38H/I41S/D60bG/ins97aV/F97D/T98P/F99L/M117T/C122S/N164D/Q192G/D217E (enzyme)
chain: B1 chain with T47G, M113T, V132I, N159D, S215E
B8: MTSP-1 Q38K/I41S/D60bV/ins97aV/F97D/T98P/F99L/M117T/C122S/Q145E/Q175L/Q192G (enzyme)
chain: B1 chain with H23K, T47V, M113T, V132I, Q141E, Q170L, S215D
B9: MTSP-1 Q38H/I41S/D60bT/F60eT/Y60gW/ins97aV/F97D/T98P/F99L/C122S/G151H/Q175L/Q192V (enzyme)
chain: B1 chain with F50T, Y52W, V132I, G146H, Q170L, G189V, S215D
B10: MTSP-1 Q38H/I41S/D60bT/F60eS/Y60gW/ins97aV/F97D/T98P/F99L/C122S/G151N/Q175L/Q192D (enzyme)
chain: B1 chain with F50S, Y52W, V132I, G146N, Q170L, G189D, S215D
B11: MTSP-1 Q38H/I41A/D60bV/F60eR/Y60gW/ins97aE/F97T/T98G/F99L/C122S/G151H/Q175L/Q192D (enzyme)
chain: VVGGTDADEGEWPWQVSLHALGHGHACGASLISPNWLVSAAHCYIDVRGRRWSDPTQWTAFLGLHDQSQRSAPGVQERRLKRIISHPFFNDTEGLDYDIALLELEKPAEYSSMVRPISLPDASHVFPAGKAIWVTGWGHTQYGGTHALILQKGEIRVINQTTCENLLPQLITPRMMCVGFLSGGVDSCDGDSGGPLSSVEADGRIFQAGVVSWGDGCAQRNKPGVYTRLPLFRDWIKENTGV
B12: MTSP-1 Q38H/I41S/L52M/D60bH/D96V/ins97aV/F97D/T98P/F99L/C122S/T150A/Q192G/Q209L/D217T (enzyme)
chain: B1 chain with L37M, T47H, D91V, V132I, T145A, Q207L, S215T
B13: MTSP-1 I41S/D60bS/D96V/ins97aV/F97D/T98P/F99L/C122S/Q192G/F208L/D217N (enzyme)
chain: B1 chain with H23Q, T47S, D91V, V132I, F206L, S215N
B14: MTSP-1 Q38H/I41S/D60bT/S90T/F97D/ins97aV/T98P/F99L/C122S/S127N/I136F/Q192G/D217Q (enzyme)
chain: B1 chain with S85T, S123N, V132F, S215Q
B15: MTSP-1 Q38H/I41S/D60bT/F93S/ins97aV/F97D/T98P/F99L/C122S/I136L/Q192G/D217A (enzyme)
chain: B1 chain with F88S, V132L, S215A
B16: MTSP-1 I41S/D60bH/ins97aV/F97D/T98P/F99L/C122S/I136V/Q192G/D217N (enzyme)
chain: B1 chain with H23Q, T47H, S215N
B17: MTSP-1 L33M/Q38H/I41A/D60bA/ins97aV/F97D/T98P/F99L/C122S/Q192G/D217N (enzyme)
chain: B1 chain with L18M, S26A, T47A, V132I, S215N
B18: MTSP-1 Q38H/I41S/D60bY/D96Y/ins97aV/F97D/T98P/F99L/L106M/C122S/I136M/Q192G/Q209L/D217T (enzyme)
chain: B1 chain with T47Y, D91Y, L102M, V132M, Q207L, S215T
B19: MTSP-1 Q38H/I41A/D60bV/F60eR/Y60gW/D96I/ins97aN/F97Y/T98G/F99L/C122S/G151N/Q175L/Q192D (enzyme)
chain: B11 chain with D91I, T92Y, E93N, H146N
B20: MTSP-1 Q38H/I41S/D60bT/F60eS/Y60gW/D96K/ins97aA/F97D/T98P/F99L/C122S/G151H/Q175L/Q192D (enzyme)
chain: B11 chain with A26S, V47T, R50S, D91K, T92D, E93A, G94P
B21: MTSP-1 Q38H/I41T/D60bV/F60eR/Y60gW/D96I/ins97aN/F97Y/T98G/F99L/C122S/G151N/Q175L/Q192D (enzyme)
chain: B11 chain with A26T, D91I, T92Y, E93N, H146N
B22: MTSP-1 Q38H/I41A/D60bV/F60eR/Y60gW/D96Y/ins97aI/F97E/T98N/F99M/C122S/G151N/Q175L/Q192V (enzyme)
chain: B11 chain with D91Y, T92E, E93I, G94N, L95M, H146N, D189V
B23: MTSP-1 Q38H/I41A/D60bV/F60eR/Y60gW/D96S/ins97aR/F97A/T98S/F99L/C122S/G151N/Q175L/Q192T (enzyme)
chain: B11 chain with D91S, T92A, E93R, G94S, H146N, D189T
B24: MTSP-1 Q38H/I41A/D60bV/F60eR/Y60gW/D96P/ins97aN/F97W/T98G/F99L/C122S/G151N/Q175L/Q192E (enzyme)
chain: B11 chain with D91P, T92W, E93N, H146N, D189E

Molecular target: plasma purified human complement protein C3 (human) (UniProt P01024)
Experiment: cell-based or functional assay

Chain of plasma purified human complement protein C3 (human) (P01024 23-667, chain 1 of 2): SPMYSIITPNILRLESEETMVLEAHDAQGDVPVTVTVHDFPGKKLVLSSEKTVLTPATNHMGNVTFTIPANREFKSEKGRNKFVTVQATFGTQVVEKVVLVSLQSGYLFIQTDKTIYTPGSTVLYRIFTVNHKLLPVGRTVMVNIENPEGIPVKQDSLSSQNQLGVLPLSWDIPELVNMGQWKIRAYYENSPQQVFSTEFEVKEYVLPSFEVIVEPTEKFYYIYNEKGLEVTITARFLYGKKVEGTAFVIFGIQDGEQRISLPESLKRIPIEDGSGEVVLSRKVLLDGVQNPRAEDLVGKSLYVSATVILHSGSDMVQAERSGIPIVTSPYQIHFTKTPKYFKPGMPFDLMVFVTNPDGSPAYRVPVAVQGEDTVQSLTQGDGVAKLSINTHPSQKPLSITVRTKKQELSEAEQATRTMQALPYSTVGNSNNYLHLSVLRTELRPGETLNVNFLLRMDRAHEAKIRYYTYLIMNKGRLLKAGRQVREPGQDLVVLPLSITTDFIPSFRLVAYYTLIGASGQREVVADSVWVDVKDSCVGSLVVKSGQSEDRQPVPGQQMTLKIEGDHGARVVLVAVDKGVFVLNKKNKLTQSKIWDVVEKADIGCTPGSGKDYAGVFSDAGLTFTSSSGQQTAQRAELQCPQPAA
Chain of plasma purified human complement protein C3 (human) (P01024 672-1663, chain 2 of 2): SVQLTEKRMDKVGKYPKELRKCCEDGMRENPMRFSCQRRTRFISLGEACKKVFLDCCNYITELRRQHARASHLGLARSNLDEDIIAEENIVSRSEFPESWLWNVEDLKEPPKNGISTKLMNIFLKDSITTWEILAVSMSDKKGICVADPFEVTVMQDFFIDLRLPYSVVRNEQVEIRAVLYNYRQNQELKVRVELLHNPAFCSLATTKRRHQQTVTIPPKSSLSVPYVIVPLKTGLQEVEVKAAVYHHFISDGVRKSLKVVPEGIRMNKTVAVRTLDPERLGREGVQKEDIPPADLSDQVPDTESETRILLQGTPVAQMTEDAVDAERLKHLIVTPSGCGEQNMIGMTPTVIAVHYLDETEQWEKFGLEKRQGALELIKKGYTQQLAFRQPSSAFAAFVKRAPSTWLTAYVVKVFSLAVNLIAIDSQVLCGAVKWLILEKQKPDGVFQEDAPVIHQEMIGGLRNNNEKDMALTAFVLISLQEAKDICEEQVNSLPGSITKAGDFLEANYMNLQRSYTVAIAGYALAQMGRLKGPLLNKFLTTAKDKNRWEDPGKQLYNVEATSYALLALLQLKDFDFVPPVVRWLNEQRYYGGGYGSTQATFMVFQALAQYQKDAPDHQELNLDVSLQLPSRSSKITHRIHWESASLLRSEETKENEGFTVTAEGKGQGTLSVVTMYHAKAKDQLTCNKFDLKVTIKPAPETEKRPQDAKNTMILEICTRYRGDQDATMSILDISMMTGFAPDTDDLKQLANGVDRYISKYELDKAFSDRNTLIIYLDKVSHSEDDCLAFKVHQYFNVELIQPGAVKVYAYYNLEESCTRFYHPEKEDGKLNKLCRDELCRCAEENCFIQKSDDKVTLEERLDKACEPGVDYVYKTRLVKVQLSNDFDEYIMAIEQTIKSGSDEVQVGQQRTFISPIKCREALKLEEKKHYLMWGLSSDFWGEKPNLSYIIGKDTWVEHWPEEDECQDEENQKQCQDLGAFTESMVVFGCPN

Binder | EC50 of hC3 cleavage [nM]
B1 | 22.2
B2 | 9.56
B3 | 25.5
B4 | 45.8
B5 | 19.5
B6 | 7.05
B7 | 10.3
B8 | 11.8
B9 | 5.52
B10 | 15.4
B11 | 5.93
B12 | 16.9
B13 | 52.4
B14 | 21.2
B15 | 37
B16 | 20.6
B17 | 50
B18 | 1.97
B19 | 2.23
B20 | 7.09
B21 | 9.75
B22 | 4.36
B23 | 2.07
B24 | 1.51
